Test results from patent US20220233607A1 (UNIVERSIT DE TOURS, published 2022).

B1: scFv anti-DEC205 fused to SAG1 (DC2 SAG1) protein, membrane anchored SAG1 ScFv DEC 205 including a HA tag, on the surface of T. gondii RH-DC2-SAG1 tachyzoites (scFv)
scFv: YPYDVPDYAQVQLQESGGGLVQPGGSLRLSCAASGFTFNDFYMNWIRQPPGQAPEWLGVIRNKGNGYTTEVNTSVKGRFTISRDNTQNILYLQMNSLRAEDTAIYYCARGGPYYYSGDDAPYWGQGVMVTVSSGGGGSGGGGSGGGGSDIQMTQSPSSLSASVGDRVTITCRASQNIKGWLAWYQQKSGNAPQLLIYKASSLQSGVPSRFSGSGSGTDYIFTISNLQPEDIATYYCQHYQSFPWTFGGGTKLELKGGGASPLVANQVVTCPDKKSTAAVILTPTENHFTLKCPKTALTEPPTLAYSPNRQICPAGTTSSCTSKAVTLSSLIPEAEDSWWTGDSASLDTAGIKLTVPIEKFPVTTQTFVVGCIKGDDAQSCMVTVTVQARASSVVNNVARCSYGADSTLGPVKLSAEGPTTMTLVCGKDGVKVPQDNNQYCSGTTLTGCNEKSFKDILPKLTENPWQGNASSDKGATLTIKKEAFPAESKSVIIGCTGGSPEKHHCTVKLEFA
notes: also called RH-DEC205
B2: scFv anti-DEC205 (DC2) protein, membrane anchored ScFv DEC 205 including a HA tag, on the surface of T. gondii RH-DC2 tachyzoites (scFv)
scFv: YPYDVPDYAQVQLQESGGGLVQPGGSLRLSCAASGFTFNDFYMNWIRQPPGQAPEWLGVIRNKGNGYTTEVNTSVKGRFTISRDNTQNILYLQMNSLRAEDTAIYYCARGGPYYYSGDDAPYWGQGVMVTVSSGGGGSGGGGSGGGGSDIQMTQSPSSLSASVGDRVTITCRASQNIKGWLAWYQQKSGNAPQLLIYKASSLQSGVPSRFSGSGSGTDYIFTISNLQPEDIATYYCQHYQSFPWTFGGGTKLELKGGGAS
notes: also called SS SAG1-HA-ScFv-linker-GPI; RH-DEC205

Molecular target: T1, DEC205 on MutuDC 1950 cells (murine dendritic cell line, DEC205+) (murine, UniProt Q60767 28-1723)
T1 construct: whole, on cells; also called CD205; dendritic cells
Test: flow cytometry, MutuDC 1950 cells with parasites at MOI 2 on ice, anti-gp23 mAb

Binder	multiplication factor of the percentage of T. gondii binding to mutuDC cells (against RH strain)
B1	≥ 2.5 fold
B2	≥ 2.5 fold
